Results taken from publication PMC7229842, “Molecular basis of the multifaceted functions of human leucyl-tRNA synthetase in protein synthesis and beyond” (Nucleic Acids Research, 2020).

Columns and labels:
[1] = target: T1, Human cytosolic isoleucyl-tRNA synthetase (human, UniProt P41252 1-1262); experiment: SEC; purified hcLRS (or hcLRS_d106) incubated with each partner separately for 4 h, then run on gel filtration; protein incubated with buffer as control; details: both partners purified
T1 construct: human cytosolic isoleucyl-tRNA synthetase (IRS), gene cloned from the cDNA of HEK293 cells; also called IRS; source: recombinant from a modified pET28b, purified (Ni-NTA, gel filtration)
T1 sequence (looked up): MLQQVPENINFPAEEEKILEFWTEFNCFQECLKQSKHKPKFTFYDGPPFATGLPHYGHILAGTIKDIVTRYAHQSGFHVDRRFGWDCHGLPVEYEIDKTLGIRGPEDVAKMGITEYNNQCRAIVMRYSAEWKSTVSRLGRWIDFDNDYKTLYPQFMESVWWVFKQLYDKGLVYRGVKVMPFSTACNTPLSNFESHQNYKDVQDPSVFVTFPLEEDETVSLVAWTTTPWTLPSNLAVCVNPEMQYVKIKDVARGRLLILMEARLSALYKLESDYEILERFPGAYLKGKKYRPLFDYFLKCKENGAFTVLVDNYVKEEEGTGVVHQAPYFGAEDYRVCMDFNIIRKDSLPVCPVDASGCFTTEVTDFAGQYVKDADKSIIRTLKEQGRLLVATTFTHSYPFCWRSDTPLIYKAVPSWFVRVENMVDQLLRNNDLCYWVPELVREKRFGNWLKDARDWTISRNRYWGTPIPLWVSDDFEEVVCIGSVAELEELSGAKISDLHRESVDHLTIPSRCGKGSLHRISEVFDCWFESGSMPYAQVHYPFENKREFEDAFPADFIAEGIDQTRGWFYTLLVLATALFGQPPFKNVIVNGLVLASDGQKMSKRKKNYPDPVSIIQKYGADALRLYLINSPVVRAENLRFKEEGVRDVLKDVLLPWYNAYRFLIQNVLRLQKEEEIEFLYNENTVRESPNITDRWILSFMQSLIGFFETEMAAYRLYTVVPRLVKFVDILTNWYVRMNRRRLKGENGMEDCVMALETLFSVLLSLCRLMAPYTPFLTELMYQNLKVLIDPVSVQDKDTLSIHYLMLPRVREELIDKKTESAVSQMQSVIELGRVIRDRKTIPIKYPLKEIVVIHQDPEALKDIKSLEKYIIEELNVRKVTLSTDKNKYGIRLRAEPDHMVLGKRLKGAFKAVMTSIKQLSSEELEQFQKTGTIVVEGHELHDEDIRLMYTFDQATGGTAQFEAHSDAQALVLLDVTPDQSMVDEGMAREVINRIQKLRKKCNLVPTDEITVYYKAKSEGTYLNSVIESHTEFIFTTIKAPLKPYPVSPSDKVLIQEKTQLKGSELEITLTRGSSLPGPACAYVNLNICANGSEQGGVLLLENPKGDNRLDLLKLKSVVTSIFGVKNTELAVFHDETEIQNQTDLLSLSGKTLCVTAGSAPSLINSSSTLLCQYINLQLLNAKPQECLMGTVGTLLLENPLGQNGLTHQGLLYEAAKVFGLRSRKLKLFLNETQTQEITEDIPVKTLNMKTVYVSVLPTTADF

[2] = target: T2, MRS-AIMP3 complex (human cytosolic methionyl-tRNA synthetase co-expressed with AIMP3) (human, UniProt P56192 1-900; O43324 1-174); experiment: pull-down; in vitro assembly of the MSC as in a2 but lacking IRS; anti-Flag beads on MRS-Flag; details: both partners purified
T2 construct: human cytosolic methionyl-tRNA synthetase (MRS), gene cloned from the cDNA of HEK293 cells; Only MRS carries the Flag tag; It is the bait of the anti-Flag pull-down of the assembled MSC; source: co-expressed from a modified pETDuet-1, purified (Ni-NTA, gel filtration); not shown: Flag, C-terminal, kept
T2 sequence (looked up) 1: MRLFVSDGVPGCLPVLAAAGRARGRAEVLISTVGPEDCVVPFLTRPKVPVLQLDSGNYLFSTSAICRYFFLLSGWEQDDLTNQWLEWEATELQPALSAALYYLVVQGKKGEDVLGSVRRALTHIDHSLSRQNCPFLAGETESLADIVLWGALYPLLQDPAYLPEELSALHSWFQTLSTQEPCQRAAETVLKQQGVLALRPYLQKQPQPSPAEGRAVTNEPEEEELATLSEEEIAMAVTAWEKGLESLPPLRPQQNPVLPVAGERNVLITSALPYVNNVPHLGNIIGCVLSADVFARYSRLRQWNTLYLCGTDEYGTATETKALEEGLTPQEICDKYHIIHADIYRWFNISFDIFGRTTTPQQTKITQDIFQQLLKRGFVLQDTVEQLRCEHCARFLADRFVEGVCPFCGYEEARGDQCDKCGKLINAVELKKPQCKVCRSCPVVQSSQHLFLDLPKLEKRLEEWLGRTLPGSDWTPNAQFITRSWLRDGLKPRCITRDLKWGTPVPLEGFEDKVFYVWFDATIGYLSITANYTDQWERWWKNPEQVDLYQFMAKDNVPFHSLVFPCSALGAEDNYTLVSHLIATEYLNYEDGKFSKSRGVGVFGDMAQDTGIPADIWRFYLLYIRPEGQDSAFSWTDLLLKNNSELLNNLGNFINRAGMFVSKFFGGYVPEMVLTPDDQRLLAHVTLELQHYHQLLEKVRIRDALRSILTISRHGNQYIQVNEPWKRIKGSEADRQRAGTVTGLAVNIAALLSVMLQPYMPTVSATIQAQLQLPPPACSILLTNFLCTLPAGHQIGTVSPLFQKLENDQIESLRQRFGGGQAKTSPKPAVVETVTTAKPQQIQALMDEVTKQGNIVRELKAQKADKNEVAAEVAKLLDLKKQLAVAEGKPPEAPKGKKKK
T2 sequence (looked up) 2: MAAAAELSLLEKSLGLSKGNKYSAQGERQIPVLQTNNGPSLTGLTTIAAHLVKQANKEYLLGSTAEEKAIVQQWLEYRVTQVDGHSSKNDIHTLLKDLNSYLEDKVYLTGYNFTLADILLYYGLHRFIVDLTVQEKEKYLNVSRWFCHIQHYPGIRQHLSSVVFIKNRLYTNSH

B1: Human cytosolic leucyl-tRNA synthetase, full length (enzyme)
chain: not shown
notes: human cytosolic leucyl-tRNA synthetase, UniProt Q9P2J5, 1176 residues; also called hcLRS; FL-hcLRS; source: recombinant from pET16b-hcLRS, purified (Ni-NTA, gel filtration)
binding result [1]: binds

B2: Human cytosolic arginyl-tRNA synthetase (enzyme, UniProt P54136 1-660, looked up)
chain: MDVLVSECSARLLQQEEEIKSLTAEIDRLKNCGCLGASPNLEQLQEENLKLKYRLNILRKSLQAERNKPTKNMINIISRLQEVFGHAIKAAYPDLENPPLLVTPSQQAKFGDYQCNSAMGISQMLKTKEQKVNPREIAENITKHLPDNECIEKVEIAGPGFINVHLRKDFVSEQLTSLLVNGVQLPALGENKKVIVDFSSPNIAKEMHVGHLRSTIIGESISRLFEFAGYDVLRLNHVGDWGTQFGMLIAHLQDKFPDYLTVSPPIGDLQVFYKESKKRFDTEEEFKKRAYQCVVLLQGKNPDITKAWKLICDVSRQELNKIYDALDVSLIERGESFYQDRMNDIVKEFEDRGFVQVDDGRKIVFVPGCSIPLTIVKSDGGYTYDTSDLAAIKQRLFEEKADMIIYVVDNGQSVHFQTIFAAAQMIGWYDPKVTRVFHAGFGVVLGEDKKKFKTRSGETVRLMDLLGEGLKRSMDKLKEKERDKVLTAEELNAAQTSVAYGCIKYADLSHNRLNDYIFSFDKMLDDRGNTAAYLLYAFTRIRSIARLANIDEEMLQKAARETKILLDHEKEWKLGRCILRFPEILQKILDDLFLHTLCDYIYELATAFTEFYDSCYCVEKDRQTGKILKVNMWRMLLCEAVAAVMAKGFDILGIKPVQRM
notes: human cytosolic RRS, gene cloned from the cDNA of HEK293 cells; also called RRS; source: recombinant from a modified pET28b, purified (Ni-NTA, gel filtration)
binding result [2]: binds

B3: Human cytosolic glutaminyl-tRNA synthetase (enzyme, UniProt P47897 1-775, looked up)
chain: MAALDSLSLFTSLGLSEQKARETLKNSALSAQLREAATQAQQTLGSTIDKATGILLYGLASRLRDTRRLSFLVSYIASKKIHTEPQLSAALEYVRSHPLDPIDTVDFERECGVGVIVTPEQIEEAVEAAINRHRPQLLVERYHFNMGLLMGEARAVLKWADGKMIKNEVDMQVLHLLGPKLEADLEKKFKVAKARLEETDRRTAKDVVENGETADQTLSLMEQLRGEALKFHKPGENYKTPGYVVTPHTMNLLKQHLEITGGQVRTRFPPEPNGILHIGHAKAINFNFGYAKANNGICFLRFDDTNPEKEEAKFFTAICDMVAWLGYTPYKVTYASDYFDQLYAWAVELIRRGLAYVCHQRGEELKGHNTLPSPWRDRPMEESLLLFEAMRKGKFSEGEATLRMKLVMEDGKMDPVAYRVKYTPHHRTGDKWCIYPTYDYTHCLCDSIEHITHSLCTKEFQARRSSYFWLCNALDVYCPVQWEYGRLNLHYAVVSKRKILQLVATGAVRDWDDPRLFTLTALRRRGFPPEAINNFCARVGVTVAQTTMEPHLLEACVRDVLNDTAPRAMAVLESLRVIITNFPAAKSLDIQVPNFPADETKGFHQVPFAPIVFIERTDFKEEPEPGFKRLAWGQPVGLRHTGYVIELQHVVKGPSGCVESLEVTCRRADAGEKPKAFIHWVSQPLMCEVRLYERLFQHKNPEDPTEVPGGFLSDLNLASLHVVDAALVDCSVALAKPFDKFQFERLGYFSVDPDSHQGKLVFNRTVTLKEDPGKV
notes: human cytosolic QRS, gene cloned from the cDNA of HEK293 cells; also called QRS; source: recombinant from a modified pET28b, purified (Ni-NTA, gel filtration)
binding result [2]: binds

B4: Human cytosolic aspartyl-tRNA synthetase (enzyme, UniProt P14868 1-501, looked up)
chain: MPSASASRKSQEKPREIMDAAEDYAKERYGISSMIQSQEKPDRVLVRVRDLTIQKADEVVWVRARVHTSRAKGKQCFLVLRQQQFNVQALVAVGDHASKQMVKFAANINKESIVDVEGVVRKVNQKIGSCTQQDVELHVQKIYVISLAEPRLPLQLDDAVRPEAEGEEEGRATVNQDTRLDNRVIDLRTSTSQAVFRLQSGICHLFRETLINKGFVEIQTPKIISAASEGGANVFTVSYFKNNAYLAQSPQLYKQMCICADFEKVFSIGPVFRAEDSNTHRHLTEFVGLDIEMAFNYHYHEVMEEIADTMVQIFKGLQERFQTEIQTVNKQFPCEPFKFLEPTLRLEYCEALAMLREAGVEMGDEDDLSTPNEKLLGHLVKEKYDTDFYILDKYPLAVRPFYTMPDPRNPKQSNSYDMFMRGEEILSGAQRIHDPQLLTERALHHGIDLEKIKAYIDSFRFGAPPHAGGGIGLERVTMLFLGLHNVRQTSMFPRDPKRLTP
notes: human cytosolic DRS, gene cloned from the cDNA of HEK293 cells; also called DRS; source: recombinant from a modified pET28b, purified (Ni-NTA, gel filtration)
binding result [2]: binds

B5: AaRS-interacting multi-functional protein 1 (natural protein, human, UniProt Q12904 1-312, looked up)
chain: MANNDAVLKRLEQKGAEADQIIEYLKQQVSLLKEKAILQATLREEKKLRVENAKLKKEIEELKQELIQAEIQNGVKQIPFPSGTPLHANSMVSENVIQSTAVTTVSSGTKEQIKGGTGDEKKAKEKIEKKGEKKEKKQQSIAGSADSKPIDVSRLDLRIGCIITARKHPDADSLYVEEVDVGEIAPRTVVSGLVNHVPLEQMQNRMVILLCNLKPAKMRGVLSQAMVMCASSPEKIEILAPPNGSVPGDRITFDAFPGEPDKELNPKKKIWEQIQPDLHTNDECVATYKGVPFEVKGKGVCRAQTMSNSGIK
notes: human AIMP1, gene cloned from the cDNA of HEK293 cells; also called AIMP1; source: recombinant from a modified pET28b, purified (Ni-NTA, gel filtration)
binding result [2]: binds
